# From the DeepSol protein solubility set
# Assay: soluble on expression in E. coli; label from the status in PepcDB or PDB records
row,Sequence,soluble on expression in E. coli
1,AHHHHHHGSEKQGEKMKRLGKVLHYAKQGFLIVRTNWVPSLNDRVVDKRLQFVGIVKDVFGPVKMPYVAIKPKVSNPEIYVGEVLYVDERKRKESPKKNKEKRMKKKKRLNR,not soluble
2,AHHHHHHGSGGLALEGRSIVFASGKGGTGKTTTVANIGVALAQFGKEVILIDADITMANLSLILGMEDIPITLHDVLAGEAELKDAIYEGPAGVKVIPGGLSLEKVKKARPERLRELIKEISQMGDFILIDAPAGLELTSVTALLIGKELIIVTNPEISAITDSLKTKLVAEKLGTLPLGAILNRVTSEKTELSKEEIEAILEVPVIGIVPEDPEVKRASAYGVPLVIKNPTSPAAIAYKQIAAKLAGIKWTPPEPESPVKRIFKALFGGKR,soluble
3,AHHHHHHGSIRRVKREIRVIGFDDGTFPHKKRGEKVILVGIVMKGGSDVLGAVSRWITIDGLDVTEAIIDSILSSRFRGDLRVILLKGITYAGFNVVDVNRVFRETGLPLIVVVRKRPDFEAIENALRKHFEDWEKRMELIKAGGKIYELIPGKVYYQAIGIDAETAAKIIRATSRNSLIPEALRIAHIVASAVMRGESSKE,not soluble
4,AHHHHHHGSKTFLTEQQIKVLMLRAKGYKQSEIAKILGTSRANVSILEKRAMEKIEKARNTLLLWEQINSKVIVEIKAGEDIFSIPEKFFKKADKVGVKVPYSTAEIITFLVEHAPVEDRLAKRDFVLFLDSKNKLRIGDCLVIEEIKED,soluble
5,AHHHHHHGSLPKNYDPNEIEPKWQKYWLEEKIYKYKLEPDKPSYAIDTPPPFTSGTLHLGHVLSHTWIDIIARYKRMRGYNVLFPQGFDNHGLPTELKVEKEFGISKDQPEEFLKKCIEWTWQAIEKMRAQFIRIGYSADWDLEYHTMDDWYKAAVQKSLLDFYKKGLIYREEHPVYWCPRCRTSLAKAEVGYVEEEGYLYYIKLPLADGSGYIPIATTRPELMPACVAVFVHPDDERYKHLVGKKVKLPIYEREVPILADEDVDPNFGTGAVYNCTYGDEQDIVWQKRYNLPVIIAINEDGTMNENAGPYAGLKIEEARKKIAEDLEKMGLLYKKEKITHRVLRHTERSSCMAPIELLPKKQWFIKVREFTDDIVEVAKKINWYPEDMFLRLKDWAESMDWDWVISRQRVFGTPIPFWICKNGHIIPAREEDLPVDPRFDKPPVEKCPVCGAEIEPVTDVLDCWVDSSITPLIITKWHEAIKGDEEAKKWFEHNFPTALRPQGTDIIRTWAFYTIFRTYMLTGEKPWNDIVINGMVAGPDGRKMSKSYGNVVSPEEVIPKYGADALRLWTALAPPGEDHPFKWEIVDYNFRFLQKLWNIYRFAERHIKDFDYEKYKHIELEPLDRWILSRLHRIIKFATEELEKYRFNLITRELMTFIWHEVADDYIEMIKHRLYGEDEESKLKAKVALYELLYNIMLLLAPFVPHITEELYHHIFKEKIGEKSVHLLQWPEYREDRIDEEAEKIGELAREIVSAMRKYKNSHGMPLNAKLKHVAIYATDSYEMLKVIEKDIAGTMNIERLEIVKGEPQLEEKVVEIKPIYKRIGPRYGKLVPKIVKHLQENAEEIGRRIKEEGKVEFEVEGQKVVLEKEDIEIKKAVFSEGEEVETAVVRDATILFF,not soluble
6,AHHHHHHGSNAVEIISREISPTLDIQTKILEYMTDFFVKEGFKWLLPVIISPITDPLWPDPAGEGMEPAEVEIYGVKMRLTHSMILHKQLAIAMGLKKIFVLSPNIRLESRQKDDGRHAYEFTQLDFEVERAKMEDIMRLIERLVYGLFRKAEEWTGREFPKTKRFEVFEYSEVLEEFGSDEKASQEMEEPFWIINIPREFYDREVDGFWRNYDLILPYGYGEVASGGEREWEYEKIVAKIRKAGLNEDSFRPYLEIAKAGKLKPSAGAGIGVERLVRFIVGAKHIAEVQPFPRIPGIPAVI,soluble
7,AHHHHHHGSRIVVIGSGTAGSNFALFMRKLDRKAEITVIGKEETMQYSPCALPHVISGVIEKPEDVIVFPNEFYEKQRIKLLLNTEAKKIDRERKVVVTDKGEIPYDKLVIATGSKAFVPPIKGVENEGVFTLKSLEDVRKIKEFIKKRNPKNAVVIGAGLIGLEGAEAFAKLGMKVTVVELLEHLLPTMLDKDIAKIVEENMRKYGVDFKFGVGVDEIIGDPVEKVKVGEEEIDADIVLVATGVRANVELAKEAGLEVNRGIVVNEYLQTSDPDIYAIGDCAEVIDAVTGKRTLSQLGTSAVRMAKVAAENIAGRNVKFRPVFNTAITEIFDLEIGAFGITEERAKKEEIEVVVGKFRGSTKPEYYPGGKPIVVKLIFRKEDRRLIGAQIVGGERVWGRIMTLSALAQKGATVEDVVYLETAYAPPISPTIDPITIAAEMAMRKL,soluble
8,AIAGIQAEQSPQNYFEGTVSQPSSRFSTTHKGLSGGYNLGLLVKMELQHSFIGKDNGISYLETKLSGFHHLPVIP,soluble
9,AIANGTELRETLEDLIKEVVQASREALDTQGELNERNEAALRTLEAQWRQRLIEELHEQGSLRVVLCRTDLLVPGSGATGTTTTNRTDPLRYVYETLRQRDPRERRRSLPPERSSQSSELEDTGTDSGEALSSGDDDDEISQVAGQPEPETANYVLSQYERVLAPSTNKQRIWRVFLRDAMVHINGQDLLLNQLQCQFDW,soluble
10,AIAVIVSRCGTGGSVTEHANEVVMKLEALQRPGGLPLSILLVLAGLTKRGASDLRHPIAEDRQSLSCATVQPSLQDV,soluble
11,AIKDAATKLFDPYEILGISTSASDRDIKSAYRKLSVKFHPDKLAKGLTPDEKSVMEETYVQITKAYESLTDELVRQNYLKYGHPDGPQSTSHG,not soluble
12,AKDFEWNFAATLSMDKNKVTRLYGDNDVVYNVDSDRNIQKEGNLFLGESRNTIYIWKTGGIAQEIDMDRLNKINWNGYNVNPGDLYPLDYDNNGQIDQNDRVVIGSTDPKFYGGFSTDFSWKGLSLNAVFSYSYGAKKLSPWYETLIGSTGSGVASTDLLDRWTPENTDAEFPRVLAGFDYNHYGASSMDFSVQKASFLRLSALTLAYTFPTKVINALKLTNLRVYATGSNLFCLTNYNGYDPETGDWYPPTRMYTFGLNLAF,not soluble
13,AKDNYGKLPLIQSRDSDRTGQKRVKFVDLDEAKDSDKEVLFRARVHNTRQQGATLAFLTLRQQASLIQGLVKANKEGTISKNMVKWAGSLNLESIVLVRGIVKKVDEPIKSATVQNLEIHITKIYTISETPEALPILLEDASRSEAEAEAAGLPVVNLDTRLDYRVIDLRTVTNQAIFRIQAGVCELFREYLATKKFTEVHTPKLLGAPSEGGSSVFEVTYFKGKAYLAQSPQFNKQQLIVADFERVYEIGPVFRAENSNTHRHMTEFTGLDMEMAFEEHYHEVLDTLSELFVFIFSELPKRFAHEIELVRKQYPVEEFKLPKDGKMVRLTYKEGIEMLRAAGKEIGDFEDLSTENEKFLGKLVRDKYDTDFYILDKFPLEIRPFYTMPDPANPKYSNSYDFFMRGEEILSGAQRIHDHALLQERMKAHGLSPEDPGLKDYCDGFSYGCPPHAGGGIGLERVVMFYLDLKNIRRASLFPRDPKRLRP,soluble
14,AKDWFVAVFANMAHNENKITKISDSLKEYNKRVQEKYAKYDSGKGDSKYSETYLQYVEGGSLTSIFGVRSLGINPADGKEIYLRPDGTITYDWNAADQVVIGNEEPKLQGTFGFNLRWKQFSLYSTFMYEFGGQRYNSTLVSKVENAHIQSSNVDRRVLTGRWQKPGDCTPYGRLQTDGVVAVTRPTSRFIQDYNVLTFNSLTLGYDFNAEWLKKARIGLLRVELSGNDLFRVATVRAERGLDYPYSRSFAASVKMSF,not soluble
15,AKFSAIITDKVGLHARPASVLAKEASKFSSNITIIANEKQGNLKSIMNVMAMAIKTGTEITIQADGNDADQAIQAIKQTMIDTALIQG,soluble
16,AKGRAGRSKRTEQDHYETDYTTGGESCDELEEDWIREYPPITSDQQRQLYKRNFDTGLQEYKSLQSVLDEINKELSRLDKELDDYREESEEYMAAADEYNRLKQVKGSADYKSKKNHCKQLKSKLSHIKKMVGDYDRQKT,soluble
17,ALKQKIIGNGEKRVVTYAPTWREDDFISVGHYHFRWHFSLKKMMGLLPEDVMLLIRPHYLVTDRIDIKGFEDRVVIDSTTDMNEIYLITDLMVTDYSSVMFDFAILKRPMLFFAYDLEYYRDDLRGFYFDYYTELPGSIVTDETHLLAEIDQLLQNNFAELDPERFNKFAKRFVSWERGTAAQQVIEKINYRRDEK,not soluble
18,ALRGTVTDFSGFDGEADAEVLEKAMEGLGTDEDSILNLLTARSNAQRQQIAEEFETLFGRDLVNDMKSELTGKFEKLIVALMKPSRLYDAYELKHALKGAGTDEKVLTEIIASRTPEELRAIKQAYEEEYGSNLEDDVVGDTSGYYQRMLVVLLQANRDPDTAIDDAQVELDAQALFQAGELKWGTDEEEFITILGTRSVSHLRRVFDKYMTISGFQIEETIDRETSGNLENLLLAVVKSIRSIPAYLAETLYYAMKGAGTDDHTLIRVIVSRSEIDLFNIRKEFRKNFATSLYSMIKGDTSGDYKKALLLLSGGEDD,soluble
19,ALYNVDAGHRAVIFDRFRGVQDIVVGEGTHFLIPWVQKPIIFDCRSRPRNVPVITGSKDLQNVNITLRILFRPVASQLPRIFTSIGEDYDERVLPSITTEILKSVVARFDAGELITQRELVSRQVSDDLTERAATFGLILDDVSLTHLTFGKEFTEAVEAKQVAQQEAERARFVVEKAEQQKKAAIISAEGDSKAAELIANSLATAGDGLIELRKLEAAEDIAYQLSRSRNITYLPAGQSVLLQLPQ,not soluble
20,AMGSVTVHSSEPEVRIPENNPVKLSCAYSGFSSPRVEWKFDQGDTTRLVCYNNKITASYEDRVTFLPTGITFKSVTREDTGTYTCMVSEEGGNSYGEVKVKLIVLVPPSKPTVNIPSSATIGNRAVLTCSEQDGSPPSEYTWFKDGIVMPTNPKSTRAFSNSSYVLNPTTGELVFDPLSASDTGEYSCEARNGYGTPMTSNAVRMEAVE,soluble
21,AMSNNKIKRKDASPEQEAIESFTSLTKCDPKVSRKYLQRNHWNINYALNDYYDKEIGTFTDEVSTVAHPPVYPKELTQVFEHYINNNLFDIDSLVKFIEELGYNLEDLATLCLAHLLGYKKLEEPLKREDFLSTWFMQGCSTISDMQECIKTLDVKLHEDLQYFTQIYNYAFNLILDPNRKDIDTDEGIQYWKLFFQPEYPVRMEPDLLEAWFRFLRDEGKTTISKDTWRMLLLFFKRYPTIQKIISDYDETAAWPFIIDEFYECLQDQQ,soluble
22,AMVSVSGIRKVQRAEGPATVLAIGTANPPNCVDQSTYADYYFRVTNSEHMTDLKKKFQRICERTQIKNRHMYLTEEILKENPNMCAYKAPSLDAREDMMIREVPRVGKEAATKAIKEWGQPMSKITHLIFCTTSGVALPGVDYELIVLLGLDPSVKRYMMYHQGCFAGGTVLRLAKDLAENNKDARVLIVCSENTSVTFRGPSETDMDSLVGQALFADGAAAIIIGSDPVPEVENPLFEIVSTDQQLVPNSHGAIGGLLREVGLTFYLNKSVPDIISQNINDALSKAFDPLGISDYNSIFWIAHPGGRAILDQVEEKVNLKPEKMKATRDVLSNYGNMSSACVFFIMDLMRKKSLEAGLKTTGEGLDWGVLFGFGPGLTIETVVLRSMAI,soluble
